Tested on: Campylobacter jejuni DSM 4688
Assay: Detection of hippuricase activity with 4-HHA, 4-aminoantipyrine and oxidizing reagent (color / absorbance at 505 nm)
Assay type: cell-based
Settings: FIG. 7B; varied 0 to 4 U/mL; 10 mM 4-HHA; 0.5 mM 4-AAP, 4.5 U/mL HRP, 10 mM glucose
Description: Campylobacter jejuni DSM 4688 (C. j., catalase positive), Eschericha coli (E. coli, catalase positive) and Campylobacter coli DSM 4689 (C. c., catalase positive), Streptococcus agalactiae ATCC®12386 (S. a., catalase negative) and Streptococcus pyogenes ATCC®19615 (S. p., catalase negative) were cultivated on Columbia Agar with sheep blood (Thermofischer PB5039A) at 37° C. for 48 h, both Campylobacter strains were cultivated under microaerophilic atmosphere (Oxoid, Campylgen CN0025A).
Biomass of colonies were suspended in sterile phosphate buffer (100 mM, pH 7.4) and the optical density OD was determined and set to OD600 of 0.9.
Two hundred μL of cell suspensions were mixed with 25 μL of 4-hydroxyhippuric acid (4-HHA, Bachem, 4005059) stock solution, prepared in 100 mM phosphate buffer pH adjusted to 7.4 in a microtiter plate (SpektraMax M5, Molecular Devices) and incubated for 70 minutes at 37° C. […] The absorbance at 505 nm was recorded with a plate reader at room temperature. […]
Two hundred μL of cell suspensions were mixed with 25 μL of 100 mM 4-hydroxyhippuric acid (4-HHA, Bachem 4005059) prepared in 100 mM phosphate buffer pH adjusted to 7.4) in a microtiter plate and incubated for 1 h at 37° C. […] The absorbance at 505 nm was recorded with a plate reader (SpektraMax M5, Molecular Devices) at room temperature. […]

B1: GOD: glucose oxidase (GOD, Merck G2133), hydrogen peroxide-generating enzyme (protein, UniProt P13006 17-605, looked up)
Glucose oxidase: LPHYIRSNGIEASLLTDPKDVSGRTVDYIIAGGGLTGLTTAARLTENPNISVLVIESGSYESDRGPIIEDLNAYGDIFGSSVDHAYETVELATNNQTALIRSGNGLGGSTLVNGGTWTRPHKAQVDSWETVFGNEGWNWDNVAAYSLQAERARAPNAKQIAAGHYFNASCHGVNGTVHAGPRDTGDDYSPIVKALMSAVEDRGVPTKKDFGCGDPHGVSMFPNTLHEDQVRSDAAREWLLPNYQRPNLQVLTGQYVGKVLLSQNGTTPRAVGVEFGTHKGNTHNVYAKHEVLLAAGSAVSPTILEYSGIGMKSILEPLGIDTVVDLPVGLNLQDQTTATVRSRITSAGAGQGQAAWFATFNETFGDYSEKAHELLNTKLEQWAEEAVARGGFHNTTALLIQYENYRDWIVNHNVAYSELFLDTAGVASFDVWDLLPFTRGYVHILDKDPYLHHFAYDPQYFLNELDLLGQAAATQLARNISNSGAMQTYFAGETIPGDNLAYDADLSAWTEYIPYHFRPNYHGVGTCSMMPKEMGGVVDNAARVYGVQGLRVIDGSIPPTQMSSHVMTVFYAMALKISDAILEDYASMQ
  GOD enzyme activity sufficient for the reaction: 1 U/mL
